Assay results reported in patent publication US20250355001A1, “METHOD FOR DETECTING A TAU PROTEIN FRAGMENT IN A SAMPLE” (GTINVENT LIMITED, priority 2022, published 2025).

Legend:
[1] = system: hT40, dGA, dGAE and truncated tau fragments; assay: Binding ELISA / epitope mapping of anti-tau scAbs with truncated tau proteins and 13mer peptides; design: species or system human; conditions: for hT40 binding region: second Table 25, mAb format; for Short epitope on hT40: Table 18, '3a' & '3b' series scAbs; for Tau proteins/fragments with positive scAb reactivity: binding ELISA; for Shortest region bound on hT40: incl. 13mer peptides
Method: A series of binding ELISA was performed using various truncated versions of the tau protein and 13mer peptide libraries spanning the entire hT40 molecule for mapping the epitopes of anti-tau scAbs (Full list of protein antigens used is given in Table 14). In general, ELISA plates were coated with 1 μg/ml hT40 or dGA or dGAE or other truncated versions of the protein and in the case of biotinylated peptides, plates were coated with 5 μg/ml Streptavidin followed by 1 μg/ml biotinylated peptide. The plates were blocked with 2% MPBS and scAb samples added at desired starting concentrations and double diluted across the plate. Binding was detected using anti-Human C Kappa HRP conjugated secondary antibody and the resulting immunoreaction was developed and absorbance values measured as described above.
Selected E specific scAbs and their specific binding to dGAE is shown below (FIG. 8A-E).
Similarly, dGA binding ‘NS’, ‘S’ and ‘M’ group scAbs were subjected to further antigen binding ELISA using shorter tau proteins and biotinylated 13mer peptides as shown below (FIG. 10A-F) and (FIG. 11A-R).

htau40 = target: T1, htau40 (Homo sapiens, UniProt P10636); assay: Biacore X100 SPR kinetics of anti-tau mAbs on immobilised htau40; assay type: binding
T1 construct: Full length tau (hT40)
T1 sequence (P10636 1-441 isoform P10636-8): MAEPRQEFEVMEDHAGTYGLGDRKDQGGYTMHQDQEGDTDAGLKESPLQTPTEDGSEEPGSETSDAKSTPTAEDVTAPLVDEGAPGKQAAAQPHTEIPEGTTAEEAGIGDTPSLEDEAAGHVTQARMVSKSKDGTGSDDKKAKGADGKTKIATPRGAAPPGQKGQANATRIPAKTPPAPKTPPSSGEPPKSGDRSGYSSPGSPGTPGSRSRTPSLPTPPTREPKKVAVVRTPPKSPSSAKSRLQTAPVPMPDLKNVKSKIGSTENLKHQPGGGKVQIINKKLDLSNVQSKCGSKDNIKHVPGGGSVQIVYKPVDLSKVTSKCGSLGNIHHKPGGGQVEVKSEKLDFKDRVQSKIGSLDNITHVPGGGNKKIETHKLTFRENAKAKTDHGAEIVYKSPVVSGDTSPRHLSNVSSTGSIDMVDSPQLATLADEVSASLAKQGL
Method: For anti-tau mAb SPR measurements, htau40 was conjugated to the surface of a CM5 sensor chip using amine coupling as explained previously. Briefly, 2 μg/mL htau40 in 10 mM Sodium acetate buffer (pH 4.0) was passed over the activated chip surface (EDC/NHS) in flow cell 2 for a period for 45 s followed by blocking with 1 M ethanolamine-HCl PH 8.5. Flow cell 1 was set up as reference control and blocked simultaneously. Final immobilisation level of htau40 (Rmax) was approximately 250 RU. Following a minimum of three start-up cycles, increasing concentrations (0.78 nM-25 nM) of the mAb in HBS-EP+ buffer was added at a rate of […] to the chip. The mAb was added for a 120 s association period and 600 s dissociation period followed by a regeneration cycle of 30 s injection of glycine buffer pH 1.5 in between each cycle. Binding responses were analysed in Biacore X100 evaluation software and data fitted to a 1:1 binding model to obtain kinetic and affinity characterisation.
For anti-tau mAb SPR measurements (Biacore X100™) and epitope mapping, the same methodologies described above (see Example 16) were followed. Kinetic rates and equilibrium binding constants of additional anti-tau mAbs and the regions recognised on hT40 are given in the Table 25 below

[2] = target: T2, hT40 (T441, SEQ ID NO: 1) (Homo sapiens, UniProt P10636); assay: Biacore X100 SPR kinetics of scAbs for hT40; assay type: binding
T2 construct: Full length tau (hT40)
T2 sequence (P10636 1-441 isoform P10636-8): as above
Method: Surface plasmon resonance (SPR) is widely regarded as the gold standard for real time measurement of protein-protein interactions such as antibody binding. All SPR experiments were carried out using a Biacore X100 machine and HBS EP+ running buffer (GE Healthcare). A ‘capture’ method was followed for affinity measurements, where an anti-human constant kappa chain (HuCk) antibody was conjugated to the surface of a CM5 sensor chip using an amine coupling kit and scAb molecules were immobilised via their HuCk domain. Amine coupling is a very common approach for immobilising the ligand to the chip surface. […] The capture antibody was diluted 1/100 in 10 mM Sodium acetate buffer pH 5.0 and passed over the activated chip surface for a period of at least 420 s. Final ligand immobilisation levels over 12,000 RU were deemed to be satisfactory.
Following immobilisation, the level of each scAb to be captured was identified using the standard SPR equation with a theoretical RMax of 100 RU. Analyte MW refers to the molecular weight of hT40 or dGA/dGAE molecules, while ligand MW refers to the molecular weight of the scAbs tested. RL is the desired capture level and S refers to the stoichiometric ratio:
The scAb to be tested was added only to flow cell 2 so that flow cell 1 could act as a control to subtract any interaction with the analyte and the chip surface. Both single and multi-cycle runs were utilised using wizards developed in the Biacore X100 control software which are both accepted methods of kinetic analysis (Karlsson, R., et al. Analyzing a kinetic titration series using affinity biosensors (2006) Analytical Biochemistry 349:136-47). The multi-cycle protocol was as follows-Three start-up cycles composed of an initial capture, to the desired level, of the scAb to be tested was performed followed by a 30 s injection of glycine buffer pH 2.0 after each cycle to regenerate the chip surface. […] Following three start-up cycles increasing concentrations (0.15625 nM-100 nM) of the target to be tested were added to the chip surface after the desired scAb capture. The target was added for a 120 s association period and 420 s dissociation period followed by another regeneration, 30 s injection of glycine buffer pH 2.0 in between each cycle.
The single cycle kinetics protocol was similar and utilised the same level of scAb capture. Three start-up cycles were used followed by 5 increasing concentrations of the analyte (6.25 nM-100 nM) for an association period of 120 s followed by a dissociation period of 420 s for each concentration. In single cycle kinetics the regeneration step was performed only after the final analyte concentration was added. Binding responses were analysed in Biacore X100 evaluation software and data fitted to a 1:1 binding model to obtain kinetic and affinity characterisation.

[3] = residue numbers of SEQ ID NO: 1 (hT40), CDR Tables 1-11
[4] = second Table 25, newly converted mAbs, hT40
[5] = Table 25, '3a' and '3b' scAbs, hT40
[6] = Table 26 summary, top scAbs, residues of hT40
[7] = Table 23, scAb captured, T441 (hT40) analyte, 1:1 model
[8] = Table 27, mAb format, immobilised htau40

| Molecule | Epitope [1, 3] | hT40 binding region [1] | ka (htau40; [4]) [M⁻¹ s⁻¹] | kd (htau40; [4]) [s⁻¹] | Short epitope on hT40 [1] | ka [2, 5] [M⁻¹ s⁻¹] | kd [2, 5] [s⁻¹] | Tau proteins/fragments with positive scAb reactivity ([1]; Table 17, 'C' group scAbs) | Shortest region bound on hT40 ([1]; Table 17, 'C' group scAbs) | Epitope [1, 6] | Detection scAb (Epitope) ([1]; Table 28 (LoD table), residues of hT40) | binding region on hT40 ([1]; amino acid residues of hT40) | ka [2, 7] [M⁻¹ s⁻¹] | kd [2, 7] [s⁻¹] | ka (htau40; [8]) [M⁻¹ s⁻¹] | kd (htau40; [8]) [s⁻¹] | Binding region hT40 ([1]; second Table 26, own antibodies) | Tau proteins/fragments with positive scAb reactivity ([1]; Table 16, NS, S and M clones) | Shortest region bound on hT40 ([1]; Table 16, NS, S and M clones) |
| --- | --- | --- | --- | --- | --- | --- | --- | --- | --- | --- | --- | --- | --- | --- | --- | --- | --- | --- | --- |
| 3bD11: anti-tau clone, Table 10; SEQ ID NO: 637 (protein) scFv: RVRLQGSGPSLVKPSQTLSLTCTVSGFSFDSYYVGWVRQAPGKALEWLGNIYSTGRAFYNPALKSRLSITRDTSKSQVSLSVSSVTIEDTALYYCVRGSYYHGGGNGMVDFFDYWSPGLLVTVSSEGKSSGASGESKVDDQVVRTQPSSVSGSLGQRVSITCSGSSSNVGYGNYVGWFQQVPGSAPKLLIYAATSRASGVPDRFSGSRSGNTATLTIDSLQAEDEADYYCSSYQRGNTGVFGSGTRLTVLG | 37-49 | 37-49 | 2.671e+06 | 0.003979 |  |  |  |  |  |  |  |  |  |  |  |  |  |  |  |
| 3aH6: N-terminal anti-tau clone, Table 6; SEQ ID NO: 423 (protein, 3aH6 amino acid sequence) QVQLQESGPSLVKPSQTLSLTCTVSGFSLSSNGVGWVRQAPGKVPEWLGDISSVGKKYANPALKSRLSFTRDTSKSQVSLSLSSVTTEDTAVYYCVKCRDGGVTYGYDIDYWGPGLLVTASSEGKSSGASGESKVDDQAVVTQPSSVSGSLGQSVSITCSGSSGNVGYGDYVSWFQQFHGSAPKLLIYGATNLASGVPARFSGSRSGNTATLTISSLHAEDEADYYCASYDSSSGGVFGSGTRLTVLG | 1-49 | 1-15 | 3.128e+06 | 0.0001522 | 1-49 | 2.757e+06 | 0.009868 |  |  |  |  |  |  |  |  |  |  |  |  |
| CC7: human-specific anti-tau clone, Table 10; SEQ ID NO: 365 (protein, CC7 amino acid sequence) scFv: QVQLQESGPSLVKPSQTLSLTCTVSGFSLTSNAVIWVRQAPGKAPEWVALIDVDGDAAYDPALKSRLSITRDTSKSQVSLSLRSVTTEDTAVYYCARDYGSWGYVSDIDYWGPGLLVTVSSEGKSSGASGESKVDDRVVRTQPSSVSGSLGQRVSITCSGSYITGSSVGWFQQVPGSGLKTVIYDNNDRPSGVPDRFSGSKSGDTATLTISSLQAEDEADYYCASYDTSNIGLFGSGTRLTVLG | 145-157 |  |  |  |  |  |  | hT40, 1-319 | 145-157 | 145-157 | CC7 (145-157) | 145-157 | 295700 | 0.0003659 | 4.576e+06 | 0.03164 |  |  |  |
| 3bG4: N-terminal anti-tau clone, Table 6; SEQ ID NO: 425 (protein, 3bG4 amino acid sequence) QVQLQESGPSLVKPSQTLSLTCTISGFSLISNGVGWVRQAPGKVPEWVGDIASSGKAYSNPALKSRLSITRDTSKSQVSLSLRSVTTEDTAVYYCVRCRDGGVTYGYDIDYWGPGLLVTVSSEGKSSGASGESKVDDQAVLTQPSSVSKSLGQSVSITCSGSTSNVGSGNDVSWFQQVPGSAPKLLFYGATNRASGVPDRFSGSRSGNTATLTITSLQAEDEADYYCGSYDSNSGGIFGSGTRLTVLG | 1-49 | 1-15 | 4.54e+06 | 0.0002964 | 1-49 | 6.669e+06 | 0.05966 |  |  |  |  |  |  |  |  |  | (Binding region hT40 1-15) |  |  |
| 3aG3: N-terminal anti-tau clone, Table 6; SEQ ID NO: 424 (protein, 3aG3 amino acid sequence) QVQLQESGPSLVKPSQTLSLTCTVSGFSLSSNGVGWVRQAPGKVPEWVGDISSSGKAYANPALKSRLSITRDTAKTQVFLSLSSVTTEDTAVYYCVRCRDGGVSYGYDIDYWGPGLLVTVSSEGKSSGASGESKVDDQAVLTQPPSVSGSPGQRVSITCSGSSSNIGGGNYLSWFQQVPGSAPKLLIYGATSRASGVPDRFSGSRSGNTATLTISSLQAEDEADYYCASFDTSSGGIFGAGTRLTVLG | 1-49 | 1-15 | 1.532e+07 | 0.004751 | 1-49 | 62940 | 0.0003869 |  |  |  |  |  |  |  |  |  |  |  |  |
| MD9: anti-tau clone, Table 10; SEQ ID NO: 373 (protein, MD9 amino acid sequence) scFv: QVRLQESGPSLVKSSQTLSLTCTVSGFSLTRESIAWVRQAPGKVPEWLGGVGIDGTSYYSPALKSRLSITRDTSKSQASLSLSSVATEDTAMYYCARNYIDFEYWGPGLLVTVSSEGKSSGASGESKVDDQAVLTQLSSVSGSLGQRISITCSGSSSNVGIYDVSWFQQLPGSGLRTVIYGTNNRPSGVPDRFSGSRSGNTATLTISSLQSEDEAIYYCAAGDSSTIAVFGSGTRLTVLG | 373-385 | 373-385 | 66200 | 0.001462 |  |  |  |  |  | 373-385 |  |  |  |  |  |  |  | hT40, 297-390 (dGA), 297-391 (dGAE), 369-390, 369-391 | 373-385 |
